Entries after “also recorded” stand apart in the source; their conditions may differ.
Experiments:
[1] = test system: AtPRK3^LRR and AtPRK6^LRR; test: Gel filtration assay, AtPRK3^LRR-AtPRK6^LRR interaction in the presence of AtLURE1.2; assay type: binding, Arabidopsis
Experimental: The AtPRK6^LRR and AtLURE1.2 proteins purified as described above were subjected to gel filtration (Hiload 200, GE Healthcare) in buffer containing 10 mM Bis-Tris pH 6.0 and 100 mM NaCl. A mixture of the purified AtPRK6^LRR and AtLURE1.2 proteins with a molar ratio of about 1:3 were incubated in 4 °C for 30 min before gel filtration analysis. Samples from relevant fractions were applied to SDS-PAGE and visualized by Coomassie blue staining. Similar procedures were used to verify the interaction of AtLURE1.2 with the other LRR proteins. […]
the presence or absence of AtLURE1.2 in vitro. […]
assay. Left panel: gel-filtration profile of the AtPRK3LRR and AtPRK6LRR proteins.
A280 (mAU), […] at 280 nm. Right panel: Coomassie blue staining of the peak fractions shown on the top following SDS–PAGE. M, molecular weight ladder (kDa). Numbers on top of SDS-PAGE indicate elution […]
AtLURE1.2 under gel filtration assay. The assays were performed as described in […]
(1 picture or pasted object on this page, not shown here)

[2] = test system: prk6 pollen tubes transformed with PRK6 of wild-type; test: Gelatin-beads assay, prk6 pollen tubes transformed with wild-type PRK6; assay type: cell-based, Arabidopsis; settings: beads with 250 nM wild-type AtLURE1.2; 10–23 pollen tubes per assay, three assays
Experimental: Attraction activities of mutant AtLURE1.2 peptides were examined for semi-in-vivo pollen tubes growing through cut, pollinated pistils by gelatin-beads assay and wavy assay, [20]. For the gelatin-beads assay, pollen tubes were grown on solid pollen germination medium poured into a mold made with 1-mm thick silicone rubber and cover glasses. After hand-pollination, the topside cover glass was removed and the medium was covered with hydrated silicone oil (KF-96–100CS; Shin-Etsu). Attraction of pollen tubes toward the peptide was evaluated using AtLURE1 peptide containing gelatine beads under an inverted microscope (IX71, Olympus) equipped with a micro-manipulator (Narishige). For the AtLURE1-responsive wavy assay, the purified AtLURE1.2 peptide was added to solid pollen germination medium, which was melted at 70 °C and then cooled to a certain degree. The mixture was mixed by vortexing and poured into the mold. Pollen tubes of each genotype were grown through cut styles, as mentioned above. Each peptide (25 μM in 10 mM Bis-Tris (pH 6.0) and 100 mM NaCl) was diluted to 250 nM by cultivation medium in both assays. To examine reactivity of PRK6 mutants to AtLURE1.2, constructs for PRK6 mutants, D234A, N239A, and ΔN239I240, were generated by site-directed mutagenesis from a wild-type PRK6 vector, pPZP221-pPRK6::PRK6-mRuby2 (ref. [20]). […]

MIK1^LRR = test: Gel filtration assay with MIK1^LRR; assay type: binding, Arabidopsis; settings: 4 °C 30 min, 10 mM Bis-Tris pH 6.0, 100 mM NaCl
Description: (§1) The genes of AtPRK3 ^LRR (residues 1–241), AtPRK4 ^LRR (residues 1–277), AtPRK5 ^LRR (residues 1–279), AtPRK6 ^LRR (residues 1–262), MIK1 ^LRR (residues 1–633), MIK2 ^LRR (residues 1–707) were amplified from Arabidopsis cDNA library by PCR and cloned into pFastBac-1 vector with a C-terminal 6 × His-tag. Their identities were confirmed by sequencing. The mature form of AtLURE1.1 (residues 20–94), AtLURE1.2 (residues 20–90), AtLURE1.3 (residues 21–91), and AtLURE1.4 (residues 20–90) were cloned into pFastBac-1 vector, with a modified N-terminal hemolin signal peptide and 6 × His-SUMO tag. Point mutation constructs were generated by QuickChange Site-Directed Mutagenesis Kit (Strategene). All the proteins were expressed using the Bac-to-Bac baculovirus expression system (Invitrogen) in High Five cells at 22 °C. One liter of High Five cells (2.0 × 10^6 cells mL^−1) cultured in the medium from Expression Systems was infected with 25 ml recombinant baculovirus and the media was collected after 72 h of infection. Secreted LRR proteins were purified using Ni-NTA (Novagen) and size-exclusion chromatography (Hiload 200, GE Healthcare) in buffer containing 10 mM Bis-Tris pH 6.0 and 100 mM NaCl. The His-SUMO tag of the AtLURE proteins was removed by Prescission Protease at 4 °C overnight in buffer containing 25 mM Tris pH 8.0 and 150 mM NaCl. […]

AtPRK6^LRR = test: ITC, AtLURE1.2 titrated into AtPRK6^LRR; design: species or system Arabidopsis thaliana; settings: MicroCalorimeter ITC200, 25 °C, 200 mM HEPES pH 7.0, 100 mM NaCl, ~0.9 mM AtLURE1.2 into 0.08 mM AtPRK6^LRR, 20 × 2 μl at 2.5-min intervals, insect cell proteins, read-out: dissociation constant / binding affinity
Description: as §1

B1: AtLURE1.2: mature form of AtLURE1.2 (residues 20–90), defensin-like cysteine-rich peptide expressed in insect cells (protein)
chain: TLINGSSDEERTYSFSPTTSPFDPRSLNQELKIGRIGYCFDCARACMRRGKYIRTCSFERKLCRCSISDIK
modifications: left off: His6, N-terminal, cleaved | SUMO, N-terminal, cleaved
notes: mature form of AtLURE1.2 (residues 20–90), defensin-like cysteine-rich peptide expressed in insect cells
AtPRK3^LRR-AtPRK6^LRR complex formation in the presence of AtLURE1.2 [1]: do not form a complex; also recorded: failed to detect AtPRK6^LRR−AtPRK3^LRR interaction
pollen tube attraction [2]: attraction was normally observed
interaction in gel filtration (MIK1^LRR): no interaction; also recorded: none of the purified AtPRK3^LRR, MIK1^LRR or MIK2^LRR proteins showed detectable interaction
Kd (AtPRK6^LRR): ~3000 nM

— paper PMC5673899, “Structural basis for receptor recognition of pollen tube attraction peptides” (Nature Communications, 2017)
